Experimental data published in patent US20100093563A1 (published 2010).

Biological target: T1, ovalbumin (UniProt P01012 2-386)
T1 sequence: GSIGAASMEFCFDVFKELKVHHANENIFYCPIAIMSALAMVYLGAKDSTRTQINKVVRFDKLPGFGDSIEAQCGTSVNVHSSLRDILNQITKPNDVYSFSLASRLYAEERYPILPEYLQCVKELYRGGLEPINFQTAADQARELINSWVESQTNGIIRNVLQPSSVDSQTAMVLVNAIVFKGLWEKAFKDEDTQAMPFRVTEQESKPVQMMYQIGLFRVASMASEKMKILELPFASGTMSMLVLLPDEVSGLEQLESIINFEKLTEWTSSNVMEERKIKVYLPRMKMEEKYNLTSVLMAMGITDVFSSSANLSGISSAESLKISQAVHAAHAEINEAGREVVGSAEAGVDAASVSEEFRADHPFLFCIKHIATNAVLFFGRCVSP
Assay: phage ELISA, ovalbumin coated 100 ng per well, anti-HA or anti-M13 detection

B1: 2G12 domain exchanged Fab fragment displayed on phage (Fab, V domains shown)
VH: EVQLVESGGGLVKAGGSLILSCGVSNFRISAHTMNWVRRVPGGGLEWVASISTSSTYRDYADAVKGRFTVSRDDLEDFVYLQMHKMRVEDTAIYYCARKGSDRLSDNDPFDAWGPGTVVTVSP
VL: GVVMTQSPSTLSASVGDTITITCRASQSIETWLAWYQQKPGKAPKLLIYKASTLKTGVPSRFSGSGSGTEFTLTISGLQFDDFATYHCQHYAGYSATFGQGTRVEIKR
notes: also called 2G12 Fab; phage from 2G12 pCAL G13 vector
binding result: no binding
